Measurements published in patent US20040186051A1 (Genentech, published 2004).

Target: T1, DR4 receptor (human, UniProt O00220 24-239, limits assumed)
T1 construct: The construct used in the ELISA is not described
Assay: receptor binding ELISA

T1 sequence (O00220 24-239 H141R/R209T limits assumed): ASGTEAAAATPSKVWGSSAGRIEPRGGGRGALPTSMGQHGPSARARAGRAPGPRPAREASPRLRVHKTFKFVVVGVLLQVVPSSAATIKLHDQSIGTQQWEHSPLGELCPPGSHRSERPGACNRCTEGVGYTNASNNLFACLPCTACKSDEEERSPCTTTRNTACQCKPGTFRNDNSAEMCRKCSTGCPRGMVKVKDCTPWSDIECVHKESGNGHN

B1: PEG-R170C-Apo2L.0(32176-78) (ligand)
chain: VRERGPQRVAAHITGTRGRSNTLSSPNSKNEKALGRKINSWESSRSGHSFLSNLHLCNGELVIHEKGFYYIYSQTYFRFQEEIKENTKNDKQMVQYIYKYTSYPDPILLMKSARNSCWSKDAEYGLYSIYQGGIFELKENDRIFVSVTNEHLIDMDHEASFFGAFLVG
modifications: Cys170 either carries methoxy-PEG-maleimide, MW 2,000 D, or is in a disulfide bond with Cys170 of another trimer; rest blocked with iodoacetamide
notes: the number of chains is therefore not one value; also called partially PEGylated and disulfide crosslinked R170C-Apo2L.0; PEG-R170C-Apo2L.0 lot 32176-78
Binder B1 has an EC50 of 0.0045 µg/mL.

B2: PEG-R170C-Apo2L.0 (32176-87C) (ligand)
chain: VRERGPQRVAAHITGTRGRSNTLSSPNSKNEKALGRKINSWESSRSGHSFLSNLHLCNGELVIHEKGFYYIYSQTYFRFQEEIKENTKNDKQMVQYIYKYTSYPDPILLMKSARNSCWSKDAEYGLYSIYQGGIFELKENDRIFVSVTNEHLIDMDHEASFFGAFLVG
modifications: methoxy-PEG-maleimide, MW 2,000 D, on Cys170 (one PEG per monomer); residual unpegylated Cys170 carboxyamidomethylated with iodoacetamide
notes: also called PEG-2K-R170C-Apo2L.0; R170C-PEG-2K
For B2, the EC50 was 0.0422 µg/mL.
